Reference: the Human Domainome abundance scans (Beltran et al. 2025)

B1: Zinc finger homeobox protein 4, residues 2562 to 2617; numbered along this chain, Q86UP3 (parent)
chain: RLRTTITPEQLEILYEKYLLDSNPTRKMLDHIAREVGLKKRVVQVWFQNTRARERK

Variants of: B1
Experiment: abundance fitness (aPCA) (normalised: wild type 0, dead -1); higher = more abundant; growth selection in yeast, the domain comes from the species named
Conditions: Homo sapiens

Abundance fitness of substitutions, site by site:
Y18: Q -0.839 | L -0.439 | P -0.842
R26: T 0.52 | K 0.1 | I 0.917 | W 0.237 | L 0.24 | P -0.236 | G -0.143 | M -0.092 | D 0.285 | V 0.223 | Q 0.369 | Y 0.867 | N 1.41 | E 0.171 | S 0.142 | H -0.017
K27: A 0.169
L19: C -0.084 | Y -0.153 | F -0.065 | I 0.196 | V -0.055 | A -0.094 | T -0.175 | P -0.897 | K -0.154 | D -0.098 | S -0.034 | R -0.112 | E -0.136 | M -0.131 | Q -0.214 | G -0.023 | W -0.229 | N -0.091
K17: H -0.441 | T -0.109 | N 0.008 | R -0.258 | L -0.508 | P -0.334 | W -0.58 | Y 0.767 | V -0.552 | S -0.164 | Q -0.033 | M -0.024
S22: L -0.56 | T -0.078 | Y -0.772 | W -0.461 | I -0.436 | F -0.168 | V -0.403 | N -0.429 | K -0.305 | P -0.402 | G -0.059 | R -0.358 | E 0.248 | D 0.035 | M -0.155 | H -0.289 | C -0.075
L20: P -0.652 | R -0.162 | C -0.236 | F -0.062 | D -0.333 | N -0.122 | E -0.092 | G -0.114 | W -0.124 | A -0.103 | S -0.193 | M -0.112 | T -0.19 | Q -0.182 | V -0.02 | K 0.035 | I -0.079
